Test results taken from the supplement of paper PMC10201428.
± gives the standard deviation of the averaged measurements.

B1: library; a variant is named by its letters at N, in order (parent)
chain: ACATTTGTTGATACAACCATAAAATGATAATTACACCCATAAATTGATAATTATCACACCCANNNNNNNNNNNNNNCTCTGATCATAGTCAGACCAACATTGCTACGACCCGTATTCGCACCGACAC

How the values were obtained:
[1] = variants of: B1; test: relative integration efficiency (T-RL orientation) vs wild-type transposon end (log2 (normalized fold change)); transposon end mutated: right end (5 bp flank + 75 bp right end); higher = more efficient transposition; conditions: with VchCAST RNA-guided transposition machinery (E. coli BL21(DE3) host, lacZ target)
Protocol: (§1)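 Pooled, barcoded VchCAST (Tn6677) mini-transposon donor libraries; each variable transposon-end sequence sits in a fixed pDonor mini-transposon context (10-bp barcode and cargo not included). Left- or right-end libraries were co-transformed with pEffector (TniQ-Cascade, TnsABC, lacZ crRNA, T7, 0.1 mM IPTG) into E. coli BL21(DE3) and grown 18 h at 37 C. T-LR and T-RL junction amplicons were sequenced; output/input barcode fold change was normalised to the mean of four wild-type barcodes and log2-transformed. Two biological replicates; zero-count/undetected variants carry floor values (-10 / -15), censored here. Barcode uncoupling by PCR recombination adds noise.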

[2] = variants of: B1; test: relative integration efficiency (T-LR orientation) vs wild-type transposon end (log2 (normalized fold change)); transposon end mutated: right end (5 bp flank + 75 bp right end); higher = more efficient transposition; conditions: with VchCAST RNA-guided transposition machinery (E. coli BL21(DE3) host, lacZ target)
Protocol: as §1

Variant	relative integration efficiency (log2) [1]	relative integration efficiency (log2) [2]
ACATTTGTTGATACAACCATAAATTGATAATTACACCCATAAATTGATAATTATCACACCCATAAATTGATATTGCCTCTGATCATAGTCAGACCAACATTGCTACGACCCGTATTCGCACCGACAC [TAAATTGATATTGC A24T]	-0.125 ± 0.1	-0.0829 ± 0.28
ACATTTGTTGATACAACCATAAAATGATGATTACACCCATAAATTGATAATTATCACACCCATAAATTGATATTGCCTCTGATCATAGTCAGACCAACATTGCTACGACCCGTATTCGCACCGACAC [TAAATTGATATTGC A29G]	-0.169 ± 0.087	-0.293 ± 0.074
ACATTTGTTGATACAACCATAAAATGATTATTACACCCATAAATTGATAATTATCACACCCATAAATTGATATTGCCTCTGATCATAGTCAGACCAACATTGCTACGACCCGTATTCGCACCGACAC [TAAATTGATATTGC A29T]	-0.372 ± 0.011	0.436 ± 0.063
ACATTTGTTGATACAACCATAAAATGATCATTACACCCATAAATTGATAATTATCACACCCATAAATTGATATTGCCTCTGATCATAGTCAGACCAACATTGCTACGACCCGTATTCGCACCGACAC [TAAATTGATATTGC A29C]	-0.793 ± 0.055	-0.254 ± 0.12
ACATTTGTTGATACAACCATAAAATGATAATTGCACCCATAAATTGATAATTATCACACCCATAAATTGATATTGCCTCTGATCATAGTCAGACCAACATTGCTACGACCCGTATTCGCACCGACAC [TAAATTGATATTGC A33G]	0.137 ± 0.055	-0.127 ± 0.057
ACATTTGTTGATACAACCATAAAATGATAATTCCACCCATAAATTGATAATTATCACACCCATAAATTGATATTGCCTCTGATCATAGTCAGACCAACATTGCTACGACCCGTATTCGCACCGACAC [TAAATTGATATTGC A33C]	0.00253 ± 0.071	0.14 ± 0.18
ACATTTGTTGATACAACCATAAAATGATAGTTACACCCATAAATTGATAATTATCACACCCATAAATTGATATTGCCTCTGATCATAGTCAGACCAACATTGCTACGACCCGTATTCGCACCGACAC [TAAATTGATATTGC A30G]	-0.795 ± 0.13	-0.2 ± 0.08
ACATTTGTTGATACAACCATAAAATGATACTTACACCCATAAATTGATAATTATCACACCCATAAATTGATATTGCCTCTGATCATAGTCAGACCAACATTGCTACGACCCGTATTCGCACCGACAC [TAAATTGATATTGC A30C]	-0.623 ± 0.12	-0.195 ± 0.17
ACATTTGTTGATACAACCATAAAATGATATTTACACCCATAAATTGATAATTATCACACCCATAAATTGATATTGCCTCTGATCATAGTCAGACCAACATTGCTACGACCCGTATTCGCACCGACAC [TAAATTGATATTGC A30T]	-0.464 ± 0.16	-0.0553 ± 0.55
ACATTTGTTGATACAACCATAAAATGTTAATTACACCCATAAATTGATAATTATCACACCCATAAATTGATATTGCCTCTGATCATAGTCAGACCAACATTGCTACGACCCGTATTCGCACCGACAC [TAAATTGATATTGC A27T]	-0.915 ± 0.17	-0.49 ± 0.05
ACATTTGTTGATACAACCATAAAATGCTAATTACACCCATAAATTGATAATTATCACACCCATAAATTGATATTGCCTCTGATCATAGTCAGACCAACATTGCTACGACCCGTATTCGCACCGACAC [TAAATTGATATTGC A27C]	-0.753 ± 0.18	-0.281 ± 0.16
ACATTTGTTGATACAACCATAAAATGGTAATTACACCCATAAATTGATAATTATCACACCCATAAATTGATATTGCCTCTGATCATAGTCAGACCAACATTGCTACGACCCGTATTCGCACCGACAC [TAAATTGATATTGC A27G]	-0.495 ± 0.11	-0.445 ± 0.25
